Test [1] has as its target T1, Recombinant human CD123 SP1 ECD-His tag protein (human, UniProt P26951 20-305).
T1 construct: bought from R&D Systems (#301-R3/CF); biotinylated for some assays; also called rhCD123 SP1; huCD123 ECD SP1
T1 sequence: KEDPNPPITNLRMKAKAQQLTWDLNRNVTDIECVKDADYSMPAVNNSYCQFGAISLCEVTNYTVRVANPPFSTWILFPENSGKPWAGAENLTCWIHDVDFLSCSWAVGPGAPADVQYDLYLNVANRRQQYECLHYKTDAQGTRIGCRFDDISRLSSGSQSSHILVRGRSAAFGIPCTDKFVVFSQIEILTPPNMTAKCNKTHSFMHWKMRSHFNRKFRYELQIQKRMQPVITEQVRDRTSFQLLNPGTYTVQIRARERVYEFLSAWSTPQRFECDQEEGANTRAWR
Nature of the test: SPR ProteOn, captured mAb.

The target of test [2] is T2, Recombinant human CD123 SP2 ECD protein (human, UniProt P26951 101-303).
T2 construct: also called rhCD123 SP2; CD123 ECD SP2
T2 sequence: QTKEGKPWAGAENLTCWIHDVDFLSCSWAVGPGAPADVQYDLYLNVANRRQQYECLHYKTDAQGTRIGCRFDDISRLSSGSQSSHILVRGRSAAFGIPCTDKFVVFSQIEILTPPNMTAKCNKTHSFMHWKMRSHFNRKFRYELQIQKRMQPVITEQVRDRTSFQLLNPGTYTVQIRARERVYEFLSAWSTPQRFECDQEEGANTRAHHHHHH
Nature of the test: SPR ProteOn, captured mAb.

Test [3] has as its target T3, cyno CD123 ECD displayed on pDisplay-transfected cells (cynomolgus monkey).
T3 construct: ECD anchored on the surface of stably transfected HEK293 cells; also called cynoCD123 SP1 cells; cynoCD123 cells
T3 chain: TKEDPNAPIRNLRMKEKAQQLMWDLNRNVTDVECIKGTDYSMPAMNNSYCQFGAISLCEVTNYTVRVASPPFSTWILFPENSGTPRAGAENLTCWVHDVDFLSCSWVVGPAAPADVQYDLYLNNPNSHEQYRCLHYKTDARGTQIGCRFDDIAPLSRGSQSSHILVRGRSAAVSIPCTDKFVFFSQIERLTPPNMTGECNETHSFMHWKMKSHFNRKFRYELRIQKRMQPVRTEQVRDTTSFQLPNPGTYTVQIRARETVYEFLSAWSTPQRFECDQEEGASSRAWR
Nature of the test: MSD-CAT on cyno pDisplay cells. As to the method: Cell lines used were human pDisplay CD and cyno pDisplay CD123SP1. […] These samples were prepared in DMEM Glutamax medium containing 0.05% Azide, 1% BSA, 3 mM EDTA. The receptor numbers of (3.15-4.18)×10⁶ hCD123/cell and (4.78-9.24) 10⁶ cyCD123/cell were converted to M receptor concentration in the mixture on the basis of the volume of reaction, the cell density (cells/L) and the Avogadro's number. […] After equilibration the plate was centrifuged for 5 min ˜1000 rpm and free anti-CD3 detected on the supernatant. […] The assay buffer was removed without washing and 50 μL/well of 0.7 μg/mL of biotinylated antigen in assay buffer were added to MSD plates and incubated overnight (˜16 hr at 4° C.). After overnight incubation, the plates were blocked by adding 150 μL/well of assay buffer without removing coating antigen, incubated for ˜1 hr at ambient temperature and washed 5 times with wash buffer (assay buffer without BSA). 50 μL/well of the supernantants from samples plate were transferred to antigen-coated plates, incubated for 60 min, and then washed three times with wash Buffer. […] After 1 hr the plates were washed and 150 μL of MSD Read Buffer (prepared by diluting 1:4 of stock into d. H₂O) were added per well. The plates were read immediately on the MSD Sector Imager 6000 Reader for luminescence levels.

Test [4] addresses T1, Recombinant human CD123 SP1 ECD-His tag …. Nature of the test: SPR Biacore T200, captured antibody. On the procedure: Kinetic studies were performed at 25° C. using a Biacore T200 (Biacore, Inc., now part of GE Healthcare). […] The carboxymethyl groups of dextran were activated with N-Ethyl-N′-(3-Dimethylaminopropyl)carbodiimide (EDC) and N-hydroxysuccinimide (NHS). The anti-Fc antibody was coupled at pH 4.5 in 10 mM sodium acetate. Any remaining reactive sites on the surface were blocked by reaction with ethanolamine. […] 40-70 RU of antibody were captured. […] Association data was collected for 2 min followed by 10 min of dissociation. The surface was regenerated with 30 μL of 100 mM H3PO4 100 μL/min, followed by 50 mM NaOH. The samples for kinetic analysis were prepared in PBS-based buffer (D-PBS containing 3 mM EDTA and 0.005% surfactant P20). Data reported is the difference in SPR signal between the flow cell containing the captured antibody and a reference cell without captured antibody. Additional instrumental contributions to the signal were removed by subtraction of the data from the blank injection from the reference-subtracted signal. Data were analyzed by fitting association and dissociation phases at all concentrations (global fit) with a 1:1 binding model using the BIAevaluation software (BIAcore, Inc.).

The target of test [5] is T3, cyno CD123 ECD displayed on …. Nature of the test: MSD-CAT, cynoCD123 cells, assay-1; apparent KD (bivalent).

B1: I3RB18 (antibody, IgG1, V domains shown)
VH: EVQLVQSGAEVKKPGESLKISCKGSGYSFTSYWISWVRQMPGKGLEWMGIIDPSDSDTRYSPSFQGQVTISADKSISTAYLQWSSLKASDTAMYYCARGDGSTDLDYWGQGTLVTVSS
VL: EIVLTQSPGTLSLSPGERATLSCRASQSVSSSYLAWYQQKPGQAPRLLIYGASSRATGIPDRFSGSGSGTDFTLTISRLEPEDFAVYYCQQDYGFPWTFGQGTKVEIK
notes: IgG1; also called 13RB18; mAb I3RB18
In general, koff refers to the rate constant with which the complex falls apart. By kon is commonly meant the rate constant with which the complex forms. B1: the Kd was 0.57 nM in test [1]; 0.363 nM in test [2]; over 12 nM in test [3]; 0.935 nM in test [4]; 0.832 nM in test [5]. Also, the koff in test [1] was determined as 0.00082 s⁻¹; in test [2], 0.000978 s⁻¹; in test [4], 0.00072 s⁻¹. For the same molecule, the kon was 1.44e+06 M⁻¹ s⁻¹ in test [1], 2.69e+06 M⁻¹ s⁻¹ in test [2] and 773000 M⁻¹ s⁻¹ in test [4].

Source of the values: US20160068605A1 (Janssen / Centocor, published 2016).
